Assay results published in US20200040039A1 (FUJIFILM, published 2020).
Positions of bridges follow the written chain, without caps; N, C: chain ends. Non-standard residues stand in square brackets, D forms with d. thiazoline = not defined here

B1: Cyclic peptide a-6-1 (peptide)
peptide: CEYCDPTFWPLFRR[3‑(5-cyanothiophen-3-yl)alanine]-NH2
modifications: bridge N-15 via thiazoline; cysteine pairing not given here; reading uncertain
notes: MS 1993.3 (M+H); Structure itself only in a drawing
B2: Cyclic peptide a-5-3 (peptide)
peptide: CFALLWPQFLPLAF[3‑(6-cyanopyridin-2-yl)Ala]-NH2
modifications: bridge N-15 via thiazoline; reading uncertain
notes: MS 1821.3 (M+H); Structure itself only in a drawing
B3: Cyclic peptide a-5-1 (peptide)
peptide: CRSWACLWPAFLWY[3‑(6-cyanopyridin-2-yl)Ala]-NH2
modifications: bridge N-15 via thiazoline; cysteine pairing not given here; reading uncertain
notes: MS 1957.6 (M+H); Structure itself only in a drawing

Tests used:
[1] = biological target: T1, MCL-1 (amino acid 1-172 portion) with a His6 tag, MBP and a TEV protease recognition sequence on the N … (UniProt Q07820 1-172); assay: SPR, Biacore T200, Mcl-1 immobilised on CM5, peptide as analyte, equilibrium analysis, as for Table 51; grade A = KD of less than 50 µmol/L
T1 construct: range 1-172; Expressed in E. coli BL21 (DE3) RIPL, purified on Ni-NTA, dialysed; tags are not reported as removed; Immobilised by amine coupling on a CM5 chip for SPR; A different construct (3xFLAG-tagged, His6/MBP cleaved) was used for panning only; also called target protein; not shown: His6 tag from the pET28a construct; no cleavage is described for this preparation

[2] = biological target: T1, MCL-1 (amino acid 1-172 portion) with a …; assay: SPR, Biacore T200, 25 C, Mcl-1 amine-coupled on CM5, peptide as analyte, equilibrium analysis; grade B = KD of 50 µmol/L or more
Protocol: A buffer obtained by adding dimethylformamide (DMF) or dimethylsulfoxide (DMSO) to a final concentration of 1 vol % to HBS-EP+(manufactured by GE Healthcare Inc.) was used as a running buffer. Mcl-1 was immobilized on a Biacore Sensor Chip Series S Sensor Chip CM5 (manufactured by GE Healthcare Inc.) using an Amine Coupling Kit (manufactured by GE Healthcare Inc.). In order to measure the dissociation constant (KD), each synthetic peptide was added at multiple concentrations to obtain a sensorgram of binding to immobilized Mcl-1.
The analysis of the obtained sensorgram was carried out using T200 evaluation software (manufactured by GE Healthcare Inc.). Solvent correction to DMF or DMSO was carried out, and then the KD was determined by equilibrium value analysis using a sensorgram obtained by subtracting the sensorgram to a flow cell in which Mcl-1 is not immobilized.

T1 sequence (Q07820 1-172): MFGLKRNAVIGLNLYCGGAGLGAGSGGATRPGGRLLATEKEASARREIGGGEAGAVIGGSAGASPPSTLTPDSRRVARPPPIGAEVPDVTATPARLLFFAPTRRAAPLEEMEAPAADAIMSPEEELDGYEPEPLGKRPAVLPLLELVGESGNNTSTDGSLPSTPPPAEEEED

Row | Binder | Kd [1] [µM] | Kd [2] [µM]
1 | B1 | < 50 | 
2 | B2 |  | ≥ 50
3 | B3 |  | ≥ 50
